Source: the RNAGym collection of RNA variant scans (doi:10.7554/elife.80360)

B1: Hairpin Ribozyme (parent)
chain: GUCCUCUUUCACGUGCGCGUGAAAGAGAGAAGUGAACCAGAGAAACACACGUUGUGGUAUAUUACCUGGUA

Variants of: B1
Experiment: self-cleavage, relative activity (ratio to wild type); higher = more cleavage; co-transcriptional

Variant	self-cleavage
G21U C50G	0.328
G21U C50U	0.376
G21U A64U	0.113
G21U A64G	0.573
G21C A39G	0.225
G21C A39U	0.46
A22C C46A	0.183
G21U G42U	0.285
G21U G42A	0.158
G21C C38A	0.18
G21C G69C	0.265
U20G A49U	0.148
G21C G51A	0.914
U20C U63C	0.184
G21C C46A	0.0884
G21C C46U	0.116
G21U G34A	1.01
G21U A30G	0.149
G21U A30U	0.142
G21U U67A	0.088
A22C A64G	0.467
A22G C48U	0.149
G21U U53A	0.836
G21C A36U	0.566

Variant	self-cleavage
G21C A36C	0.534
G21U G29C	0.224
G21C A61C	0.151
G21C A35U	0.751
G21C A44U	0.0331
G21A A45U	0.286
A22C A49U	0.204
G21C G54U	0.511
G21C G54A	0.392
A22G A36G	0.757
A22G A59U	0.0393
A22C G42U	0.239
A22C G42A	0.146
U20G A61C	0.11
U20G A61G	0.257
A22G G25U	0.595
A22G G25A	0.623
U20G G42C	0.206
U20G G42U	0.245
G21U A47G	0.208
U20G U52G	0.772
G21A G69A	0.382
G21A A49C	0.233
G21A A49G	0.469

Variant	self-cleavage
A22C C38G	0.215
A22C C38U	0.552
A22G A23C	0.915
A22G A23U	0.59
A22G G57A	0.17
A22G G57U	0.305
A22C G68A	0.165
A22C G68U	0.262
G21C U62G	0.216
G21A A30C	0.128
G21A C37A	0.269
G21A C37G	0.344
G21A C37U	0.538
A22C G54U	0.514
A22C G54A	0.587
G21A U60C	0.956
A22C A43C	0.061
G21C A23C	0.422
A22G A44C	0.136
U20G A22C	0.816
A22G A41C	1.01
A22G A41U	0.921
A22G A64G	0.565
G21A G68A	0.151

Variant	self-cleavage
U20C U55C	0.159
U20C U55G	0.426
G21A G54U	0.372
G21U U58G	0.585
G21U U58C	0.84
U20C G69C	0.239
U20C G69A	0.435
A22G U52A	0.853
U20C U60C	0.724
U20C U60A	1.15
A22G G27A	0.522
G21A G56A	0.19
G21A G56U	0.185
G21A A39C	0.467
G21A A39U	0.346
U20G G34C	1.14
U20G G34A	1.19
U20G G40C	0.188
A22C U62G	0.155
A22C U62A	0.128
U20G A47U	0.0722
G21A C46A	0.149
A22C U60G	0.484
A22C U60A	0.664

Variant	self-cleavage
A22C U60C	1.16
G21C U67A	0.212
G21C U67G	0.246
G21C U67C	0.18
U20G G25C	0.643
A22C G29C	0.0774
A22C U55G	0.173
A22C U55C	0.247
U20G A64G	0.511
A22C U52C	1.09
A22C U52G	0.726
U20G G21U	0.754
G21C G40U	0.17
G21C G40C	0.0941
A22C A23C	0.947
A22C A23U	0.932
A22C A23G	0.779
A22G A61C	0.337
A22G A61U	0.159
A22G A24U	1.08
A22G A24G	0.808
G21A A31U	0.0982
G21U A43U	0.129
G21U A43G	0.282

Variant	self-cleavage
G21C G32C	0.175
A22C U58C	0.94
A22C C48U	0.235
A22C C48A	0.291
A22C C48G	0.138
G21C U53C	0.953
A22G A47G	0.135
U20C U67C	0.2
G21C A59C	0.238
A22G U33G	0.111
G21U G68A	0.237
G21U G68U	0.32
G21A U52G	0.784
G21A G25U	0.426
U20C U53G	0.708
U20C U53A	0.861
A22G G42C	0.365
A22G G42U	0.288
G21U A61C	0.237
G21U A44G	0.0823
G21U A44C	0.117
U20G G27C	0.165
G21C G57A	0.16
G21C A28U	0.31

Variant	self-cleavage
G21C G68A	0.321
G21C G68C	0.155
A22C U53A	0.81
A22C U53G	0.822
A22C U53C	1.03
A22G G54U	0.423
G21U A24C	0.481
G21U A71G	0.805
G21C C66U	0.576
G21C C66A	0.27
G21C A26C	0.164
G21C G42U	0.379
G21U C38A	0.184
G21C A43G	0.104
G21C A43C	0.146
G21A U53C	0.739
G21A U53A	0.824
A22C A44U	0.221
G21C A31G	0.275
A22G A49U	0.126
G21A A47U	0.162
G21A A24U	0.513
G21U A59C	0.148
G21U A59U	0.147

Variant	self-cleavage
G21U A59G	0.0937
G21A A71C	1.23
G21A A71G	0.854
U20G A30U	0.137
U20G A30G	0.148
U20G G54A	0.417
U20G G54U	0.595
A22C A41G	0.704
G21U G51C	0.859
G21U A39G	0.293
G21U A39C	0.448
U20G G32U	0.162
U20G G32C	0.105
G21A A35G	0.729
U20G C37U	0.594
U20G C37G	0.395
G21A G32A	0.193
G21A G32U	0.0748
U20G U33A	0.158
U20G U33G	0.11
U20G A45G	0.128
G21U U62A	0.151
G21C G27C	0.134
A22C G51U	0.919

Variant	self-cleavage
U20G U58C	0.826
G21U U60C	1.08
G21A C38A	0.208
G21A C38G	0.239
A22C U67A	0.195
A22C U67C	0.196
A22C U63G	0.109
U20G U62C	0.188
A22C A30C	0.16
G21A A43C	0.153
G21A A43U	0.123
G21A A59U	0.142
G21A A59C	0.13
A22G C65G	0.249
G21C A71G	0.818
A22G A39G	0.298
A22G C37U	0.646
A22G C37A	0.312
G21C U60C	0.851
G21C U60A	0.744
A22C G56C	0.243
A22C G56U	0.148
G21U U63C	0.122
G21U U63G	0.248

Variant	self-cleavage
G21C A41U	1.16
G21C A41C	0.957
G21U A23G	0.772
G21U A23U	0.754
A22G C38A	0.147
G21C U58A	0.577
G21C U58C	0.77
U20G G29A	0.0828
U20G G29C	0.18
G21A U58G	0.554
A22G G56U	0.0693
A22G G56A	0.185
A22G A26C	0.649
G21A G34A	0.968
A22G C50U	0.362
A22G C50G	0.42
A22C A24G	0.717
G21C C37U	0.583
G21C C37A	0.192
G21U A22U	0.809
G21C A64U	0.0998
G21C A64C	0.154
G21U U70C	0.687
U20G G57A	0.195

Variant	self-cleavage
G21A A28C	0.472
G21A A28G	0.979
G21A A36U	0.503
G21A A36C	0.605
U20G C38A	0.184
U20G C38U	0.542
U20G A59C	0.313
A22G G29U	0.0873
A22G G29A	0.121
G21A C66U	0.447
G21U G25A	0.252
G21U A49G	0.408
U20G A24U	0.731
A22C A59C	0.0825
A22C A59G	0.25
A22C A59U	0.104
A22C C66A	0.216
A22C C66U	0.649
A22C A26C	0.528
U20G C48A	0.203
G21C U63C	0.196
U20G C66A	0.0821
U20G C66G	0.219
G21U C37A	0.267

Variant	self-cleavage
G21C U33A	0.133
A22C G40C	0.123
A22G A35G	0.905
A22G A35U	0.715
U20G C50G	0.225
A22C U33C	0.155
A22C U33A	0.0448
A22G A31C	0.159
A22G A31G	0.744
U20G A31C	0.164
U20G A31U	0.0664
G21A A61U	0.18
G21A A61G	0.116
G21C G34U	1.12
G21C G34C	0.992
G21C A45C	0.276
G21C A45G	0.192
G21C A45U	0.154
U20G G68U	0.297
U20C U62G	0.116
U20C U62A	0.202
G21A A26U	0.525
G21A A26G	0.658
A22C G25A	0.247

Variant	self-cleavage
G21U G27U	0.253
G21A C50U	0.371
G21A A64G	0.418
G21A A64U	0.178
U20G A44U	0.0389
G21C C48G	0.184
G21C C48U	0.098
G21A C65U	0.147
G21A C65G	0.158
G21A C65A	0.861
A22G C46G	0.208
A22G C46U	0.0765
U20G U67A	0.241
U20G U67C	0.186
A22G A30C	0.182
A22G A30U	0.0767
A22G A30G	0.0887
A22C C65U	0.303
A22C C65A	0.64
A22C C65G	0.116
G21A G42U	0.249
G21A G42C	0.281
G21A G42A	0.218
G21C C65A	0.777

Variant	self-cleavage
G21A G29C	0.168
G21C G56C	0.209
G21C G56U	0.268
A22C C50U	0.405
G21A U55A	0.177
U20C G56U	0.215
U20C G56C	0.216
G21U A28U	0.688
A22C G27A	0.272
U20C G68C	0.219
U20C G68U	0.257
U20G G51A	0.909
U20G G51U	0.916
G21A U62G	0.163
U20G A39C	0.461
G21A U63A	0.14
U20G A28U	0.643
G21U U55A	0.227
G21U U55C	0.288
G21C A30G	0.22
A22C U70C	0.892
A22C U70A	0.862
